The data set concerns MS2 coat protein. Nature of the data set: apparent KD of MS2 coat protein; designed switch direction (-1 OFF switch, 1 ON switch): -1; higher = weaker reporter binding. Summed up:
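Designed RNA switches with common flanks were made on Illumina chips by stalled E. coli RNA polymerase. Titration with SNAP-549-labelled MS2 coat protein doubled from 0.7 or 1.5 nM up to 3 µM. Apparent KD is each design's median over clusters after curve-fitting normalised fluorescence.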

[1] abbreviates: Eterna round: R95, input ligand: FMN 200 uM.
Where [2] appears, read: Eterna round: R95, input ligand: microRNA oligo, concentration not stated.
Setting [3] is: Eterna round: R95, input ligand: none.
Setting [4] is: input ligand: microRNA oligo, concentration not stated.

Take “CUUCGGCGAGGAUAUUACGAGAACGACAUGAGGAUCACCCAUGUGAUCGAGGUUGCCUCGUAAGAAGGCGCAUAUA [Reederedle] (Eterna round: R97, puzzle: Exclusion 5)”: the “apparent KD of MS2 coat protein” value is, setting by setting: (input ligand: FMN 200 uM) 1050 nM; (input ligand: none) 244 nM.
On to “AUAAAUAAGGAGGAUAUCGUAUCGGAAACGAUACGAGAAGGCCUAACAUGAGGAUCACCCAUGUUCCUUAAAUA [Mat - Exclusion 6 - Eli Mod - D62] (puzzle: Exclusion 6)”, for which the “apparent KD of MS2 coat protein” value is, setting by setting: under setting [1], 40.9 nM; under setting [2], 24.1 nM; under setting [3], 21.6 nM.
As for “UCCAACCCUGUGAGGAUAUCGUCCAUUUUUUGUUACGAGAAGGCACAUGAGGAUCACCCAUGUUUUUUAUUUUU [JR_BMOE4_Sub079] (puzzle: Brourd's mod of Exclusion 4)”, the “apparent KD of MS2 coat protein” value under setting [2] turned out to be 23.8 nM.
Turning to “UAUAUAUAGUAAGGAUAUGUAUUAAUUUUAUUAACAGAAGGUACUGACAUGAGGAUCACCCAUGUUUUAGUGUGGGCAUGUAGA [JMF's solution 90] (Eterna round: R96, puzzle: Exclusion NG 1)”, the “apparent KD of MS2 coat protein” value under setting [4] stood at 69.4 nM.
Regarding “GGGCCUGGUGUAGGAUAUCGUGGGCGGUGUCGGCGAGAAGGACAUGAGGAUCACCCAUGUCCGGGCUCGGGUUCCCGGGCUUGG [second try -37.9 kcal and 14% A] (Eterna round: R96, puzzle: Exclusion NG 1)”, the “apparent KD of MS2 coat protein” value is, setting by setting: (input ligand: FMN 200 uM) 28.5 nM; under setting [4], 13 nM; (input ligand: none) 15.4 nM.
As for “UUUUAACAUGAGGAUCACCCAUGUGAGGAUAUCGAAAUUUAUAUUAAUAUUUAUAUUUCGAGAAGGCACAUUUU [JMF 57] (puzzle: Exclusion 1)”, the “apparent KD of MS2 coat protein” value under setting [2] was determined as 153 nM.
For “UGUGCUUCAGGAUAUACGUGACGACCGUGAGGUCGAAGGUUACAUGAGGAUCACCCAUGUAGAAGGGAAGUACU [Mat - Exclusion 2 - JL Mod - D29] (Eterna round: R97, puzzle: Exclusion 2)”, the “apparent KD of MS2 coat protein” value turned out to be 66.8 nM (input ligand: FMN 200 uM) and 33 nM (input ligand: none).
As to “UUUUAACAUGAGGAUCACCCAUGUGAGGAUAUCGAAAUUUAUAUUAAUAUUUAUAAAUCGAGAAGGCACAUUUU [JMF 52] (puzzle: Exclusion 1)”, under setting [2], the “apparent KD of MS2 coat protein” value amounted to 139 nM.
As to “GGUUGUUGUUUCCGUUCUUACAUGAGGAUCACCCAUGUUUCUUGUCGUGCUCGCGUUGCUCGUCUGGCUGCCUGUUG [salish99_TOv1_r3_070] (puzzle: Sensor v3, turn-off variant 1)”, the “apparent KD of MS2 coat protein” value by setting is: under setting [1], 41.2 nM; under setting [2], 37.4 nM; under setting [3], 54.4 nM.
With “GUCGUGCAGCUUUGCUGUACGAGUACAUGAGGAUCACCCAUGUAGGAUAUGGUACGCUUUGCGUGCUAGAAGGAUAUGUGUAGG [salish99_ExNG3_r04_501] (Eterna round: R96, puzzle: Exclusion NG 3)”, the “apparent KD of MS2 coat protein” value (input ligand: FMN 200 uM) came to 49.3 nM, the “apparent KD of MS2 coat protein” value under setting [4] came to 41.7 nM and the “apparent KD of MS2 coat protein” value (input ligand: none) came to 44.3 nM.
For “GUCACUAGAGGAUAUACAAUGGUAUAUGAUCCUAGAGACAAACAUGAGGAUCACCCAUGUAGAAGGCUAGUAAU [Exclusion 2 - 3] (puzzle: Exclusion 2)”, the “apparent KD of MS2 coat protein” value was found to be 23.8 nM under setting [1], 178 nM under setting [2] and 123 nM under setting [3].
Take “UGAGAGUGAGGAUAUACGUCGCUGGUCCGGAUGGACGCAUGACAUGAGGAUCACCCAUGUAGAAGGCAUUUCCC [Enxela Mod 6 - Jieux - Exclusion 2] (Eterna round: R97, puzzle: Exclusion 2)”: the “apparent KD of MS2 coat protein” value reads like this: (input ligand: FMN 200 uM) 75.2 nM; (input ligand: none) 26.9 nM.
For “GAUUAUGCGAGCUUUAGGGACAUGAGGAUCACCCAUGUUCGUCUUGUUGAUCUAGGUGCGCUAACAUACCUAAAUCU [JMF 48] (puzzle: Sensor v3, turn-off variant 1)”, the “apparent KD of MS2 coat protein” value is, setting by setting: under setting [1], 23.5 nM; under setting [2], 30.5 nM; under setting [3], 23.4 nM.
